B1: Eupenicillium terrenum ATCC 18547: fructosyl peptide oxidase produced by Eupenicillium terrenum ATCC 18547 with less action on ε-fructosyl lysine; amino acid sequence SEQ ID NO: 3 (protein, listed as Eupenicillium terrenum)
chain: MAHSRASTKVVVVGGGGTIGSSTALHLIRSGYTPSNITVLDVYKTPSLQSAGHDLNKIMGIRLRNGPDLQLSLESLDMWQNDELFKPFFHQVGMIDCSSSKEGIENLRRKYQTLLDAGIGLEKTNVWLESEDEILAKAPNFTREQVKGWKGLFCTDGGWLAAAKAINAIGIFLQDKGVKFGFGGAGTFQQPLFAADGKTCIGLETTDGTKYFADKVVLAAGAWSPTLVDLEDQCVSKAWVFAHIQLTPKEADAYKNVPVVYDGEYGFFFEPNEYGVIKVCDEFPGFSRFKLHQPYGAASPKMISVPRSHAKHPTDTYPDASEVTIRKAIARFLPEFKDKELFNRTMCWCTDTADANLLICEHPKWKNFILATGDSGHSFKLLPNIGKHVVELLEGSLSQEMAGAWRWRPGGDALRSRRGAPAKDLAEMPGWKHDAHL
B2: Coniochaeta sp. NISL 9330: fructosyl peptide oxidase produced by Coniochaeta sp. NISL 9330 (FERM BP-7798) with less action on ε-fructosyl lysine; amino acid sequence SEQ ID NO: 1 (protein, listed as Coniochaeta sp.)
chain: MTSNRADTRVIVVGGGGTIGSSTALHLVRSGYAPANITVLDTFEIPSAQSAGHDLNKIMGIRLRNKVDLQMSLEARQMWKEDELFQPFFHNTGRMDCEHTPEGIEDLKKQYQALHDAGAGLEKTHAWLDNEDEILSKMPLLQRDQIQGWKAIWSQDGGWLAAAKAINAIGQFLKERGVKFGFGGAGSFKQPLFDDEGTTCIGVETADGTKYYADKVVLAAGAWSPTLVDLEDQCCSKAWVYAHIQLTPEEAAEYKGVPVVYNGEFGFFFEPNEFGVIKVCDEFPGFSRFKEHQPYGAPSPKHISVPRSHAKHPTDTYPDASEVSIKKAIATFLPRFQDKELFNRALCWCTDTADAALLMCEHPKWKNFILATGDSGHSFKILPNVGKHVVELIEGRLPEEMAYQWRWRPGGDALKSRRAAPPKDLADMPGWKHDPKL

Legend:
Type in all cases: biochemical
[1] = Enzyme activity assay, ε-fructosyl lysine substrate; conditions: for Substrate specificity (% relative activity) εFL: crude enzyme sample; for relative activity for ε-fructosyl lysine: purified oxidase, compared to 100% activity for fructosyl valyl histidine
Excerpt: Enzyme activities of the oxidase of the invention and the oxidase of the invention that have less action on ε-fructosyl lysine (hereinafter, the term “the oxidases of the invention” may comprise both the oxidase of the invention and the oxidase of the invention that have less action on ε-fructosyl lysine) may principally be determined by determining the amount of α-ketoaldehyde, peptide, hydrogen peroxide or the like which are produced through enzyme reaction or by determining the amount of oxygen consumed by the enzyme reaction. Hereinafter, a method for determining the amount of hydrogen peroxide will be described as one example. Unless otherwise noted, fructosyl valyl histidine is used as a substrate for determining the activities of the oxidases of the invention. Titer of the enzyme is defined such that an amount of enzyme for producing 1 μmol hydrogen peroxide per minute is 1U as determined using a fructosyl valyl histidine substrate. 624 mg of fructosyl valyl histidine is dissolved in ion exchange water to a constant volume of 10 ml. Alternatively, fructosyl glycine or ε-fructosyl lysine of 357 mg or 462 mg, respectively, may be dissolved in ion exchange water to a constant volume of 10 ml to be used as a substrate. Fructosyl valine histidine was prepared as described in Japanese Patent Application Laid-Open (kohyo) No. 2001-95598. Fructosyl glycine and ε-fructosyl lysine were prepared according to a method of Horiuchi et al. (Agric. Biol. Chem., 53, 103-110, 1989; Agric. Biol. Chem., 55, 333-338, 1991). 2.7 ml of Reagent 1, 100 μl of Reagent 2 and 100 μl of enzyme solution are mixed and pre-heated at 30° C. for 5 minutes. Then, 100 μl of Reagent 3 is added and thoroughly mixed to determine absorbance at 510 nm using a spectrophotometer (U-[…], Hitachi, Ltd.). Measurement values indicate changes in the absorbance per minute at 510 nm after 1 to 3 minutes. A control solution was prepared in the same manner as described above except 100 μl ion exchange water was added instead of 100 μl Reagent 3. A standard solution of hydrogen peroxide and ion exchange water were used instead of Reagent 3 and the enzyme solution, respectively, to prepare a graph showing relationship with respect to the level of color. Referring to this graph, micromole of hydrogen peroxide produced per minute at 30° C. is calculated and used as the unit for expressing the activity of the enzyme solution. The presence of action on ε-fructosyl lysine can be determined in the same manner by using Reagent 3 (substrate solution) containing ε-fructosyl lysine substrate instead of fructosyl valyl histidine substrate.

[2] = Identifying reaction product by HPLC (TSK gel Amide-80); conditions: 2 mM fructosyl valyl histidine, 0.003U oxidase, 37° C. for 2 hours
Method: (§1) Reaction solution was assayed by HPLC to identify reaction products. First, 50 μl of reaction solution (2 mM fructosyl valyl histidine, 5 mM phosphate buffer (pH 8.0), 0.003U of the inventive oxidase) was incubated at 37° C. for 2 hours, diluted (10×) and then assayed for the reaction products in a TSK gel Amide-80 column (available from Tosoh Co., Ltd.). As a control, the same procedure was repeated except for using a buffer instead of the enzyme.
as §1, with “Similarly,” for “As”, “control sample” for “control, the same procedure”, “obtained by” for “repeated except for”, “enzyme and assayed.” for “enzyme.”

[3] = Km value for fructosyl valyl histidine (Lineweaver-Burk plot); conditions: purified oxidase
Method: In the above-described activity assay, the activity of the oxidase was monitored using different concentrations of fructosyl valyl histidine (substrate), and Michaelis constant (Km) was determined from a Lineweaver-Burk plot.
In the above-described activity assay, activity was monitored using different concentrations of fructosyl valyl histidine (substrate), and Michaelis constant (Km) was determined from a Lineweaver-Burk plot.

[4] = reference substrate set to 100%

Row | Molecule | Substrate specificity (% relative activity) εFL [1, 4] | Substrate specificity (% relative activity) εFL ([1]; relative to activity for fructosyl valyl histidine (100%)) | relative activity for ε-fructosyl lysine [1] | reaction product identified by HPLC [2] | Km [3]
1 | B1 | 100% | 9.78% | 9.78% | a peak was detected only for valyl histidine | 4.25 mM
2 | B2 | 100% |  | 61% |  | 

Source: patent publication US7419813B2, “Fructosyl peptide oxidase” (Kikkoman Corporation, priority 2001, dated 2008)
